Paper PMC6994237, “HOPS recognizes each SNARE, assembling ternary trans-complexes for rapid fusion upon engagement with the 4th SNARE” (eLife, 2020)

B1: his6-Vam3 (full length), His6-tagged Qa SNARE (natural protein, S. cerevisiae, UniProt Q12241 1-283, looked up)
chain: MSFFDIEAQSSKGNSQQEPQFSTNQKTKELSNLIETFAEQSRVLEKECTKIGSKRDSKELRYKIETELIPNCTSVRDKIESNILIHQNGKLSADFKNLKTKYQSLQQSYNQRKSLFPLKTPISPGTSKERKDIHPRTEAVRQDPESSYISIKVNEQSPLLHNEGQHQLQLQEEQEQQQQGLSQEELDFQTIIHQERSQQIGRIHTAVQEVNAIFHQLGSLVKEQGEQVTTIDENISHLHDNMQNANKQLTRADQHQRDRNKCGKVTLIIIIVVCMVVLLAVLS
notes: Vam3, vacuolar Qa-SNARE, S. cerevisiae, full length; A 36 amino acyl linker stands between the his6 tag and the N-terminus (Izawa et al., 2012, PMID 22174414); also called His6-Qa; source: E. coli, purified; not shown: His6 (with a 36 amino acyl linker), N-terminal, kept

Assays:
Conditions in all cases: both partners purified
[1] = target: T1, Qc-SNARE Vam7, full-length, wild-type (inherently water-soluble) (S. cerevisiae, UniProt P32912 1-316); assay: pull-down; his6-tagged Qa or his6-tagged Qb at 4 µM mixed with 4 µM of the other indicated full-length SNAREs in 20 mM HEPES-NaOH pH 7.4, 150 mM NaCl, 10% glycerol, 100 mM ß-octylglucoside, 20 mM imidazole; 1 hr 4°C; nickel-NTA agarose; Coomassie-stained gel
T1 construct: Vam7, vacuolar Qc-SNARE, S. cerevisiae, full length; source: E. coli, purified
T1 sequence (looked up): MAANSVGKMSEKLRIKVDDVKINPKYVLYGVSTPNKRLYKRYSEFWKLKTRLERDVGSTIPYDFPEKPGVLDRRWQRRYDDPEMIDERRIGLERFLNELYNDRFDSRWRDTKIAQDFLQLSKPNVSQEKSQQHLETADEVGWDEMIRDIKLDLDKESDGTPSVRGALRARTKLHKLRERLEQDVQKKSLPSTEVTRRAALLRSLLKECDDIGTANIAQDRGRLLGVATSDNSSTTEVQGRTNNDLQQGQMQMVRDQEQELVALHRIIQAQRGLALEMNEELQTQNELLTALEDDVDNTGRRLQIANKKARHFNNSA

[2] = target: T2, Qa-SNARE Vam3, full-length, wild-type (S. cerevisiae, UniProt Q12241 1-283); assay: as above
T2 construct: Vam3, vacuolar Qa-SNARE, S. cerevisiae, full length; Isolated as GST-Qa (Mima et al., 2008); also called GST-Qa; source: E. coli, purified; reconstituted into proteoliposomes
T2 sequence (looked up): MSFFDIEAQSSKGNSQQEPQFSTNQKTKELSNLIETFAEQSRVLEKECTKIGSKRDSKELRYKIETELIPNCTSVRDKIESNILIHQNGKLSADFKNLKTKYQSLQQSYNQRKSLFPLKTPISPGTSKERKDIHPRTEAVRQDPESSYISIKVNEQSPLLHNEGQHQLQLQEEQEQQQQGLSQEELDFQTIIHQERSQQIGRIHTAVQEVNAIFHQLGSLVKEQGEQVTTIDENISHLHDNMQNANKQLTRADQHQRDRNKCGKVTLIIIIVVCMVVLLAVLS

[3] = target: B1; assay: as above
[4] = target: T2, Qa-SNARE Vam3, full-length, wild-type; assay: pull-down; GST-tagged R at 4 µM mixed with 4 µM of the other indicated full-length SNAREs in 20 mM HEPES-NaOH pH 7.4, 150 mM NaCl, 10% glycerol, 100 mM ß-octylglucoside; 1 hr 4°C; glutathione agarose 4B; Coomassie-stained gel
[5] = target: T2, Qa-SNARE Vam3, full-length, wild-type; assay: co-IP; Ypt7/R and Ypt7/QaQb proteoliposomes incubated 33 min with or without 50 nM HOPS and 4 μM Qc; solubilised in modified RIPA buffer with 5 μM GST-R; precipitated with anti-Qa antibody on protein A magnetic beads, 4°C 2 hr; immunoblot for R

B1: binds [1].

B2: his6-Vti1 (full length), his6-tagged Qb SNARE (natural protein, S. cerevisiae, UniProt Q04338 1-217, looked up)
chain: MSSLLISYESDFKTTLEQAKASLAEAPSQPLSQRNTTLKHVEQQQDELFDLLDQMDVEVNNSIGDASERATYKAKLREWKKTIQSDIKRPLQSLVDSGDRDRLFGDLNASNIDDDQRQQLLSNHAILQKSGDRLKDASRIANETEGIGSQIMMDLRSQRETLENARQTLFQADSYVDKSIKTLKTMTRRLVANKFISYAIIAVLILLILLVLFSKFK
notes: Vti1, vacuolar Qb-SNARE, S. cerevisiae, full length; A 36 amino acyl linker stands between the his6 tag and the N-terminus (Izawa et al., 2012, PMID 22174414); also called his6-Qb; source: E. coli, purified; not shown: His6 (with a 36 amino acyl linker), N-terminal, kept
B2: binds [2].

B3: Qb-SNARE Vti1, full-length, wild-type (natural protein, S. cerevisiae, UniProt Q04338 1-217, looked up)
chain: MSSLLISYESDFKTTLEQAKASLAEAPSQPLSQRNTTLKHVEQQQDELFDLLDQMDVEVNNSIGDASERATYKAKLREWKKTIQSDIKRPLQSLVDSGDRDRLFGDLNASNIDDDQRQQLLSNHAILQKSGDRLKDASRIANETEGIGSQIMMDLRSQRETLENARQTLFQADSYVDKSIKTLKTMTRRLVANKFISYAIIAVLILLILLVLFSKFK
notes: Vti1, vacuolar Qb-SNARE, S. cerevisiae, full length; the text names it Qb without a tag; also called GST-Qb; source: E. coli, purified; buffer exchanged into β-octylglucoside; reconstituted into proteoliposomes
B3: binds [3].

B4: GST-Nyv1, GST-tagged full-length R SNARE (natural protein, S. cerevisiae, UniProt Q12255 1-253, looked up)
chain: MKRFNVSYVEVIKNGETISSCFQPFQKNENYGTITSANEQITPVIFHNLIMDMVLPKVVPIKGNKVTKMSMNLIDGFDCFYSTDDHDPKTVYVCFTLVDMPKILPIRILSGLQEYESNATNELLSSHVGQILDSFHEELVEYRNQTLNSSGNGQSSNGNGQNTISDIGDATEDQIKDVIQIMNDNIDKFLERQERVSLLVDKTSQLNSSSNKFRRKAVNIKEIMWWQKVKNITLLTFTIILFVSAAFMFFYLW
notes: Nyv1, vacuolar R-SNARE, S. cerevisiae, full length, cloned into pGST parallel1; Vector pGST parallel1 (Sheffield et al., 1999), BamHI/SalI; also called GST-R; GST-tagged R SNARE; source: E. coli Rosetta(DE3)pLysS, purified (glutathione-Sepharose 4B, in β-octylglucoside)
B4: binds [4].

B5: R-SNARE Nyv1, full-length, wild-type, untagged (natural protein, S. cerevisiae, UniProt Q12255 1-253, looked up)
chain: MKRFNVSYVEVIKNGETISSCFQPFQKNENYGTITSANEQITPVIFHNLIMDMVLPKVVPIKGNKVTKMSMNLIDGFDCFYSTDDHDPKTVYVCFTLVDMPKILPIRILSGLQEYESNATNELLSSHVGQILDSFHEELVEYRNQTLNSSGNGQSSNGNGQNTISDIGDATEDQIKDVIQIMNDNIDKFLERQERVSLLVDKTSQLNSSSNKFRRKAVNIKEIMWWQKVKNITLLTFTIILFVSAAFMFFYLW
notes: Nyv1, vacuolar R-SNARE, S. cerevisiae, full length; source: E. coli, purified; buffer exchanged into β-octylglucoside; reconstituted into proteoliposomes
B5: binds [5]; binds [3].
